Experimental data taken from patent publication US20250076311A1 (Chugai, published 2025).
Substitutions are numbered along the chain they refer to.

T1: cynomolgus monkey FcγRIIIaS extracellular domain with C-terminal His-tag (cynomolgus monkey, UniProt Q8SPW2 21-206 at identity 1.00))
T1 construct: also called cyno FcgRIIIaS; cynoFcγRIIIaS
T1 chain: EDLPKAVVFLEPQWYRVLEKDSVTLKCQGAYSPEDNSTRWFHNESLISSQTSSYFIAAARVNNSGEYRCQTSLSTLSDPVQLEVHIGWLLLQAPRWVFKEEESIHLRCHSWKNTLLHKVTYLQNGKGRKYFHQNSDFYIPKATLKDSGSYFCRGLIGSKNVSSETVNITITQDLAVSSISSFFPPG

T2: human FcγRIIb extracellular domain with C-terminal His-tag (human, UniProt P31994 43-217)
T2 construct: also called human FcgRIIb
T2 sequence: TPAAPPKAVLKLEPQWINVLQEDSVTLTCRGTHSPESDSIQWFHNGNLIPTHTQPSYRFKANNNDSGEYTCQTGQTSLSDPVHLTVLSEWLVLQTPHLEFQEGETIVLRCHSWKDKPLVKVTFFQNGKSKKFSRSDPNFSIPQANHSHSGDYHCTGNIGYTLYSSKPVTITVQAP

T3: cynomolgus monkey FcγRIIIaS extracellular domain with C-terminal His-tag (cynomolgus monkey, UniProt Q8SPW2 21-206 at identity 1.00))
T3 construct: also called cyno FcγRIIIaS; FcgRIIIaS
T3 chain: T1 chain

T4: cynomolgus monkey FcγRIIa3 extracellular domain with C-terminal His-tag (cynomolgus monkey)
T4 construct: also called cyno FcγRIIa3; FcgRIIa3
T4 chain: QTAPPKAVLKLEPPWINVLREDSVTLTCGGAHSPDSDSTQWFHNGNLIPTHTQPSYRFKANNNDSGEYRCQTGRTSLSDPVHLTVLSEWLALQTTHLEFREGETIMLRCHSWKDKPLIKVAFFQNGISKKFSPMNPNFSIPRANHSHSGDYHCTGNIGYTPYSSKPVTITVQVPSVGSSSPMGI

T5: human FcγRIIaR extracellular domain with C-terminal His-tag (human, UniProt P12318 34-217)
T5 construct: also called human FcγRIIa (type R); FcgRIIaR
T5 chain: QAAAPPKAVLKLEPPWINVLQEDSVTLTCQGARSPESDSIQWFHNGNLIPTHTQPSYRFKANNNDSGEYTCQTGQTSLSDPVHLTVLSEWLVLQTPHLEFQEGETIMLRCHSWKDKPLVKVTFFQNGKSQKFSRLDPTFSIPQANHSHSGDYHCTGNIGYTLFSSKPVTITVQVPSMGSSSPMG

T6: human FcγRIIaH extracellular domain with C-terminal His-tag (human, UniProt P12318 34-217)
T6 construct: also called human FcgRIIaH; FcγRIIa type H; not shown: His-tag added to the C-terminus
T6 sequence: T5 chain with R134H

T7: cynomolgus monkey FcγRIIa1 extracellular domain with C-terminal His-tag (cynomolgus monkey)
T7 construct: also called cyno FcgRIIa1; cynoFcγRIIa1; not shown: His-tag added to the C-terminus
T7 chain: T4 chain with T95P, A121T, S128A, P133H, N135D

T8: cynomolgus monkey FcγRIIa3 extracellular domain with C-terminal His-tag (cynomolgus monkey)
T8 construct: also called cyno FcgRIIa3; cynoFcγRIIa3; not shown: His-tag added to the C-terminus
T8 chain: T4 chain

T9: human FcγRIIaR extracellular domain with C-terminal His-tag (human, UniProt P12318 34-217)
T9 construct: also called human FcgRIIaR; FcγRIIa type R; not shown: His-tag added to the C-terminus
T9 chain: T5 chain

T10: human FcγRIIb extracellular domain with C-terminal His-tag (human, UniProt P31994 43-217)
T10 construct: also called human FcgRIIb; not shown: His-tag added to the C-terminus
T10 sequence: T2 sequence

B1: MS1032LO06-SG1012 (antibody, human IgG1, kappa)
heavy: QVTLKESGPVLVKPTETLTLTCTVSGIDLSHDDISWVRQAPGKGLEWVGIISYAGSTYYASWAKGRLTISKDTSKNQVVLTMTNMDPVDTATYYCARGVPAYSHGGDLWGQGTLVTVSSASTKGPSVFPLAPSSKSTSGGTAALGCLVKDYFPEPVTVSWNSGALTSGVHTFPAVLQSSGLYSLSSVVTVPSSSLGTQTYICNVNHKPSNTKVDKKVEPKSCDKTHTCPPCPAPELLNGPSVFLFPPKPKDTLMISRTPEVTCVVVDVSEEDPEVKFNWYVDGVEVHNAKTKPREEQYNSTYRVVSVLTVLHQDWLNGKEYKCKVSNKALPKPIEKTISKAKGQPREPQVYTLPPSREEMTKNQVSLTCLVKGFYPSDIAVEWESNGQPENNYKTTPMVLDSDGSFFLYSKLTVDKSRWQQGNVFSCSVMHEALHAHYTQKSLSLSP
light: DIVMTQSPATLSLSPGERATLSCTSSQSVYHANWLSWFQQKPGQPPKLLIYWASTLAYGVPSRFSGSGSGTDFTLTISSLQPEDAATYYCAGGYGGGRYAFGQGTKVEIKRTVAAPSVFIFPPSDEQLKSGTASVVCLLNNFYPREAKVQWKVDNALQSGNSQESVTEQDSKDSTYSLSSTLTLSKADYEKHKVYACEVTHQGLSSPVTKSFNRGEC
notes: tied to rows r7/r25 by row order only; also called MS103205H795-SG1012; copies: 2 + 2
B2: M103205H795-MY280 (heavy chain) with M103202L889-SK1 (light chain) (antibody, human IgG1, kappa, name in EU numbering)
heavy: B1 heavy with N238V, E270D, Q297L, M398P, A436N
light: B1 light
notes: Substitutions introduced into M103205H795-SG1; positions in EU numbering
B3: M103205H795-MY229 (heavy chain) with M103202L889-SK1 (light chain) (antibody, human IgG1, kappa, name in EU numbering)
heavy: B1 heavy with N238G, G239Y, E270D, Q297L, M398K, A436N
light: B1 light
notes: as for B2
B4: M103205H795-MY227 (heavy chain) with M103202L889-SK1 (light chain) (antibody, human IgG1, kappa, name in EU numbering)
heavy: B1 heavy with N238G, G239Y, E270D, M398K, A436N
light: B1 light
notes: as for B2
B5: M103205H795-MY199/M103202L889-SK1 (antibody, human IgG1, kappa, name in EU numbering)
heavy: B1 heavy with M398P, A436N
light: B1 light
notes: Fc variant of MS1032LO06-SG1; positions in EU numbering
B6: M103205H795-MY105/M103202L889-SK1 (antibody, human IgG1, kappa, name in EU numbering)
heavy: B1 heavy with S241V, K332A, A436N
light: B1 light
notes: as for B5
B7: M103205H795-MY289/M103202L889-SK1 (antibody, human IgG1, kappa, name in EU numbering)
heavy: B1 heavy with E270H, A436N
light: B1 light
notes: as for B5
B8: M103205H795-MY321 (heavy chain) with M103202L889-SK1 (light chain) (antibody, human IgG1, kappa, name in EU numbering)
heavy: B1 heavy with N238H, E270D, A436N
light: B1 light
notes: as for B2
B9: MS1032LO19-SG1071 (antibody)
heavy: QVQLVESGGGLVQPGGSLRLSCAVSGIDLSHDDISWVRQAPGKGLEWVSIISYAGSTYYASWAKGRLTISKDTSKNQVVLTMTNMDPVDTATYYCARGVPAYSHGGDLWGQGTLVTVSSASTKGPSVFPLAPSSKSTSGGTAALGCLVKDYFPEPVTVSWNSGALTSGVHTFPAVLQSSGLYSLSSVVTVPSSSLGTQTYICNVNHKPSNTKVDKKVEPKSCDKTHTCPPCPAPELLNGPSVFLFPPKPKDTLMISRTPEVTCVVVDVSDEDPEVKFNWYVDGVEVHNAKTKPREELYNSTYRVVSVLTVLHRDWLNGKEYKCKVSNKALPKPIEKTISKAKGQPREPQVYTLPPSREEMTKNQVSLTCLVKGFYPSDIAVEWESNGQPENNYKTTPPVLDSDGSFFLYSKLTVKKSRWQQGNVFSCSVLHEALHAHTTRKELSLSP
light: B1 light with S25T, A32E
notes: tied to rows r14/r32 by row order only; also called MS103240H795-SG1071; copies: 2 + 2
B10: M103205H795-MY206/M103202L889-SK1 (antibody, human IgG1, kappa, name in EU numbering)
heavy: B1 heavy with S241V, E270D, Q297L, M398P, A436N
light: B1 light
notes: as for B5

What was measured:
[1] = molecular target: T1, cynomolgus monkey FcγRIIIaS …; experiment: SPR, KD(parent SG1)/KD(variant)
[2] = molecular target: T2, human FcγRIIb extracellular domain with …; experiment: SPR, KD(parent SG1)/KD(variant)
[3] = molecular target: T3, cynomolgus monkey FcγRIIIaS …; experiment: SPR; KD of SG1 / KD of variant
Description: (§1) The kinetic analysis of interactions between these antibodies and FcγR was carried out using BIACORE® T200 or BIACORE® 4000 (GE Healthcare). HBS-EP+ (GE Healthcare) was used as the running buffer, and the measurement temperature was set to 25° C. […] After the measurement, the antibody captured on the chip was washed off by allowing reaction with 10 mM glycine-HCl, pH1.5 and 25 mM NaOH so that the chip was regenerated and used repeatedly. The sensorgrams obtained as measurement results were analyzed by the 1:1 Langmuir binding model using the BIACORE® Evaluation Software to calculate the binding rate constant ka (L/mol/s) and dissociation rate constant kd (1/s), and the dissociation constant KD (mol/L) was calculated from these values. […] Regarding such interactions, KD values were calculated using the following 1:1 binding model described in BIACORE® T100 Software Handbook BR1006-48 Edition AE.

[4] = molecular target: T4, cynomolgus monkey FcγRIIa3 …; experiment: SPR; KD of SG1 / KD of variant
Description: as §1

[5] = molecular target: T5, human FcγRIIaR extracellular domain …; experiment: SPR; KD of SG1 / KD of variant
Description: as §1

[6] = molecular target: T6, human FcγRIIaH extracellular domain …; experiment: SPR (BIACORE), antibody captured, FcgR analyte
[7] = molecular target: T11, cynomolgus monkey FcγRIIIaS extracellular domain with C-terminal His-tag (cynomolgus monkey, UniProt A3RFZ7 21-206 (rhesus entry)); experiment: SPR (BIACORE), antibody captured, FcgR analyte
T11 construct: also called cyno FcgRIIIaS; cynoFcγRIIIaS; not shown: His-tag added to the C-terminus

[8] = molecular target: T7, cynomolgus monkey FcγRIIa1 …; experiment: SPR (BIACORE), antibody captured, FcgR analyte
[9] = molecular target: T12, human FcγRIIIaV extracellular domain with C-terminal His-tag (human, UniProt P08637 17-208); experiment: SPR (BIACORE), antibody captured, FcgR analyte
T12 construct: also called human FcgRIIIaV; not shown: His-tag added to the C-terminus

[10] = molecular target: T11, cynomolgus monkey FcγRIIIaS …; experiment: SPR (BIACORE); KD of SG1 / KD of variant
[11] = molecular target: T8, cynomolgus monkey FcγRIIa3 …; experiment: SPR (BIACORE), antibody captured, FcgR analyte
[12] = molecular target: T9, human FcγRIIaR extracellular domain …; experiment: SPR (BIACORE), antibody captured, FcgR analyte
[13] = molecular target: T10, human FcγRIIb extracellular domain with …; experiment: SPR (BIACORE), antibody captured, FcgR analyte

T12 sequence (P08637 17-208 F176V): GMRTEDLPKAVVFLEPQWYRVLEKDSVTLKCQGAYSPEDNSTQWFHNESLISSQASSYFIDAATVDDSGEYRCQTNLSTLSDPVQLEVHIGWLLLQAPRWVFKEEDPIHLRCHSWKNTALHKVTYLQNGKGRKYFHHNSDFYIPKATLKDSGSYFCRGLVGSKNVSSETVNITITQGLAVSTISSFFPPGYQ

| Binder | KD fold (SG1 = 1) [3] [fold] | KD fold (SG1 = 1) [4] [fold] | Kd [7] [nM] | Kd [8] [nM] | Kd [11] [nM] | also measured |
| --- | --- | --- | --- | --- | --- | --- |
| B1 | – | – | – | – | – | KD fold (SG1 = 1) [1]: 0.11 fold; KD fold (SG1 = 1) [2]: 0.5 fold |
| B2 | 0.2 | 3.7 | – | – | – | – |
| B3 | 0.09 | 8.9 | – | – | – | KD fold (SG1 = 1) [5]: 13.6 fold |
| B4 | 0.09 | 6.8 | – | – | – | – |
| B5 | – | – | 41 | 1900 | – | Kd [6]: 1100 nM; Kd [9]: 13000 nM |
| B6 | – | – | 1300 | 1200 | 1500 | KD fold (SG1 = 1) [10]: 0.28 fold; Kd [6]: 1500 nM |
| B7 | – | – | 5200 | 1500 | 8600 | Kd [12]: 3500 nM |
| B8 | – | 5.9 | – | – | – | – |
| B9 | – | – | – | – | – | KD fold (SG1 = 1) [1]: 0.07 fold; KD fold (SG1 = 1) [2]: 5.7 fold |
| B10 | – | – | 3500 | 810 | 3000 | Kd [13]: 900 nM |
